Data reported in US6020130, “Nucleic acid ligands that bind to and inhibit DNA polymerases” (NeXstar Pharmaceuticals, Inc.).

Key:
Taq DNA polymerase [1] = target: T1, Taq DNA polymerase (UniProt P19821 P19821:1-832); assay: filter; details: tags: rTaq, 94 kDa, Roche Molecular Systems / Perkin Elmer; stem-loop dimer
Procedure: For isolation of DNA molecules that bind tightly to Taq polymerase and Tth polymerase, respectively, the nitrocellulose filter partitioning method was used as described in the SELEX Patent Applications. Briefly, gel-purified ^32P ss-DNA pools labeled at the 5' end were suspended in the binding buffer, heated to 80° C., chilled on ice and then brought to room temperature. The DNA (5–10 pM) was then incubated for 15 minutes at room temperature with varying amounts of the target polymerase in 50 µL of the appropriate binding buffer containing 0.1 µg of tRNA and 0.01% hSA. The DNA concentrations were kept lower than 100 pM to ensure equilibrium in the presence of excess protein concentrations. After 15 minutes the binding reaction mixtures were passed through pre-wet nitrocellulose/cellulose acetate mixed matrix filters (0.45 µm pore size, Millipore Corporation, Bedford, Mass.) and the filters were immediately washed with 5 mL of binding buffer. The amount of DNA bound to the filters was quantitated by measuring the radioactivity of the filters by liquid scintillation counting. The quantity of DNA bound to filters in the absence of protein was used for background correction. The percentage of input DNA retained on each filter was plotted against the corresponding log of the polymerase concentration (FIGS. 1 and 2). […]

Taq DNA polymerase [2] = target: T1, Taq DNA polymerase; assay: inhibition; hairpin extension assay; details: tags: rTaq, 94 kDa, Roche Molecular Systems / Perkin Elmer; stem-loop dimer
Procedure: (§1) In a typical inhibition assay, a 20 μL reaction contained either 0.25 pmoles of Taq polymerase (5 U) or 0.125 pmoles of Tth polymerase (2.5 U), oligonucleotide inhibitor (at varying concentrations), 10 mM Tris-HCl (pH 8.3), 50 mM KCl, 2.5 mM MgCl_2, and 1 mM each dNTPs. Gel purified, 5'-end-labeled hairpin DNA substrate (DNA-HP; 5'-[…]-3') was then added to a final concentration of 250 nM and the reaction was incubated at 30° C. for 1 hour. The reaction was stopped by adding 5 μL of 0.5 M EDTA (pH 8.0) followed by formamide gel loading buffer. Extension products were resolved on 10% polyacrylamide gels under denaturing conditions. The amount of extension products were quantitated by phosphorimager. The amounts of products formed in the presence of inhibitor was normalized to the product formed in the absence of an inhibitor to obtain the percent of product.

Taq DNA polymerase [3] = target: T1, Taq DNA polymerase; assay: inhibition; room temperature 16 h, 12.5 nM Taq; 22 nM at 30 C 1 h; IT50 41 C; details: tags: rTaq, 94 kDa, Roche Molecular Systems / Perkin Elmer
Procedure: (§2) Since the concentration of Taq polymerase used in the assay is 12.5 nM, enzyme inhibition by TQ30 (SEQ ID NO:50) is likely to be a result of stoichiometric binding.
as §1

Tth DNA polymerase [4] = target: T2, Tth DNA polymerase (UniProt P52028 P52028:1-834); assay: inhibition; room temperature; IT50 29 C; details: tags: rTth, 94 kDa, Roche Molecular Systems / Perkin Elmer
T2 sequence (P52028 whole entry, one chain of several): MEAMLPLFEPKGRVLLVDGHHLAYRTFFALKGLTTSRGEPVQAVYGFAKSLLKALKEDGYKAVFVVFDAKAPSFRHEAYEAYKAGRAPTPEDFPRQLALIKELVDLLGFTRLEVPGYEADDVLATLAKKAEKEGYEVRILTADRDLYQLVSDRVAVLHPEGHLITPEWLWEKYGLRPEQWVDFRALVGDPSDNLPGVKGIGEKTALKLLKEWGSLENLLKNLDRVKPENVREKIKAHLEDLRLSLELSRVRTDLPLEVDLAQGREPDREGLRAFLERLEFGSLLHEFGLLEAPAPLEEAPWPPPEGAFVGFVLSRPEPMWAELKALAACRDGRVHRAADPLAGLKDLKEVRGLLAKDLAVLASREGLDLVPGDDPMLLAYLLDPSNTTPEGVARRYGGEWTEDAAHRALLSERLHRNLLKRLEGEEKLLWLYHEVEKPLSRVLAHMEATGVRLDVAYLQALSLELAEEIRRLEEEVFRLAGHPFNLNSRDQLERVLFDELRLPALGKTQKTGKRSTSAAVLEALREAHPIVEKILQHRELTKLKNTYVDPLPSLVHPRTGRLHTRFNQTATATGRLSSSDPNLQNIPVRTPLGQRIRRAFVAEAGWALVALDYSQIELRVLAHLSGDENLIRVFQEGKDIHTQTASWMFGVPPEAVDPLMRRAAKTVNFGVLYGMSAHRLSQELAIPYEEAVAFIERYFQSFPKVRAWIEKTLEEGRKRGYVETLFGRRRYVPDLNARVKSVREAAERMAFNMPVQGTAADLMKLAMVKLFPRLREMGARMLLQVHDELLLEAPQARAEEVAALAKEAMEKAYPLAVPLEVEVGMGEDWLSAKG
Procedure: as §2, §1

Taq DNA polymerase [5] = target: T1, Taq DNA polymerase; assay: inhibition; hairpin extension assay, monomer; details: tags: rTaq, 94 kDa, Roche Molecular Systems / Perkin Elmer; stem-loop
Procedure: as §1

Taq DNA polymerase [6] = target: T1, Taq DNA polymerase; assay: inhibition; hairpin extension assay; IT50 41 C; details: tags: rTaq, 94 kDa, Roche Molecular Systems / Perkin Elmer
Procedure: as §1

Tth DNA polymerase [7] = target: T2, Tth DNA polymerase; assay: inhibition; hairpin extension assay; IT50 34.5 C; details: tags: rTth, 94 kDa, Roche Molecular Systems / Perkin Elmer
Procedure: as §1

Tth DNA polymerase [8] = target: T2, Tth DNA polymerase; assay: inhibition; hairpin extension assay; IT50 35.6 C; details: tags: rTth, 94 kDa, Roche Molecular Systems / Perkin Elmer
Procedure: (§3) Deletion analysis of the full-length TQ21 sequence led to the identification of a 51-mer sequence (Trnc.21 (SEQ ID NO:70) (Table 4)) that retained the ability to inhibit both Taq and Tth polymerases. In addition to the entire 30-nucleotide random region, the Trnc.21 sequence contained 9 and 12 nucleotides from the 5' and 3' fixed regions, respectively (Table 4). […] The calculated $IT50$ values for Taq polymerase and Tth polymerase are 34° C. and 35.6° C., respectively (FIG. 13C). The hairpin extension assays were carried out between the temperatures of 35 and 50° C. for 1 hour with […] Trnc.21. Thus, based on the affinity and the values of $IC50$ and $IT50$, the truncated form of TQ21 is a better inhibitor than the full-length sequence.
as §1, with “conditions.” for “conditions. The amount of extension products were quantitated by phosphorimager. The amounts of products formed in the presence of inhibitor was normalized to the product formed in the absence of an inhibitor to obtain the percent of product.”

Taq DNA polymerase [9] = target: T1, Taq DNA polymerase; assay: inhibition; hairpin extension assay; IT50 34 C; details: tags: rTaq, 94 kDa, Roche Molecular Systems / Perkin Elmer
Procedure: as §3
as §1, with “conditions.” for “conditions. The amount of extension products were quantitated by phosphorimager. The amounts of products formed in the presence of inhibitor was normalized to the product formed in the absence of an inhibitor to obtain the percent of product.”

Taq DNA polymerase [10] = target: T1, Taq DNA polymerase; assay: inhibition; room temperature 16 h, 12.5 nM Taq; 67 nM at 30 C 1 h; IT50 37 C; details: tags: rTaq, 94 kDa, Roche Molecular Systems / Perkin Elmer
Procedure: as §2, §1

T1 sequence (P19821 whole entry, one chain of several): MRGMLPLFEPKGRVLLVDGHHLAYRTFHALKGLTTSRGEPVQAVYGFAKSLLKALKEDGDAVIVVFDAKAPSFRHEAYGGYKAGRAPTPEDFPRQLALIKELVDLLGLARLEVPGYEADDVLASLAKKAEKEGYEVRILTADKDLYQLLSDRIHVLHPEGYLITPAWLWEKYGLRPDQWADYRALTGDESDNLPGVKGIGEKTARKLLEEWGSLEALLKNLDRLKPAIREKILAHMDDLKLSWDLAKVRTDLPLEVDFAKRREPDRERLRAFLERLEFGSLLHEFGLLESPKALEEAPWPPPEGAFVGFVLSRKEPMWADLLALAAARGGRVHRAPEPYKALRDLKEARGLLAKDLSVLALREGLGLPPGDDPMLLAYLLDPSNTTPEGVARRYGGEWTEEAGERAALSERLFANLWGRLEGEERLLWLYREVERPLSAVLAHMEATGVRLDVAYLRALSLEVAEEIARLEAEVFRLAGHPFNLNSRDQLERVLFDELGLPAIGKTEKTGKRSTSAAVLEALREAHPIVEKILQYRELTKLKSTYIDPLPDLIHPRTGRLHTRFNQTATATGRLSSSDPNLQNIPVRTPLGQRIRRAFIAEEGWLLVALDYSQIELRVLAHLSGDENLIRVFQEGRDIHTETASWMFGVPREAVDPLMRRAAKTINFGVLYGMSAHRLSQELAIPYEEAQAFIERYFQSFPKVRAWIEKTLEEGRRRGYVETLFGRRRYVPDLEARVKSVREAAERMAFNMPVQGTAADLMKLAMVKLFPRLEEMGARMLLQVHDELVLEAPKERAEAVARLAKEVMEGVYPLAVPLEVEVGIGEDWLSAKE

B1: D.30-D.30 homodimer (ssDNA)
DNA 1: GCCGGCCAATGTACAGTATTGGCCGGC
DNA 2: GCCGGCCAATGTACAGTATTGGCCGGC
modifications: two Trnc.2-30 copies joined with symmetrical 3'-3' branching CPG linker (linker region drawn in figure only)
Q: B1 was tested. Which Kd (Taq DNA polymerase [1]) did it give?
A: The Kd was 0.0475 nM.

Q: What about the IC50 (Taq DNA polymerase [2]) of the same binder?
A: Its IC50 is 14 nM.

B2: TQ30 (ssDNA)
DNA: TTCTCGGTTGGTCTCTGGCGGAGCAAGACCAGACAATGTACAGTATTGGCCTGATCTTGTGTATGATTCGCTTTTCCC
Q: Which results are given for B2?
A: IC50 (Taq DNA polymerase [3]): 6.5 nM; IC50 (Tth DNA polymerase [4]): 60 nM

Q: With GCCGGCCAATGTACAGTATTGGCCGGC (ssDNA) [Trnc.2-30] as the binder, how does the IC50 (Taq DNA polymerase [5]) read?
A: The IC50 was 48 nM.

B3: D.21-D.30 heterodimer (ssDNA)
DNA: TGGCGGAGCGATCATCTCAGAGCATTCTTAGCGTTTTGTTCTTGTGTATGATTTGCCGGCCAATGTACAGTATTGGCCGGC
Q: How did the IC50 (Taq DNA polymerase [6]) turn out when B3 was run?
A: The IC50 was roughly 30 nM.

Q: What about the IC50 (Tth DNA polymerase [7]) of the same binder?
A: Its IC50 is roughly 30 nM.

B4: Trnc.21 (ssDNA)
DNA: TGGCGGAGCGATCATCTCAGAGCATTCTTAGCGTTTTGTTCTTGTGTATGA
Q: With B4 as the binder, how does the IC50 (Tth DNA polymerase [8]) read?
A: Its IC50 is 36.5 nM.

Q: What about the IC50 (Taq DNA polymerase [9]) of the same binder?
A: The IC50 was 21 nM.

B5: TQ21 (ssDNA)
DNA: TTCTCGGTTGGTCTCTGGCGGAGCGATCATCTCAGAGCATTCTTAGCGTTTTGTTCTTGTGTATGATTCGCTTTTCCC
Q: How did the IC50 (Taq DNA polymerase [10]) turn out when B5 was run?
A: Its IC50 is 10 nM.

Q: And the IC50 (Tth DNA polymerase [4])?
A: The IC50 was 36 nM.
